We go through one molecule from patent US20110136811A1, “PROKINETICIN 1 RECEPTOR” (published 2011).

For this experiment, the target named is rat PK1 receptor, endogenous in rat ileum (rat, UniProt Q8R416). In words: cell-based or functional assay.

B1: PK1 ligand preparation (recombinant human Prokineticin 1 after enterokinase removal of the N-terminal FLAG tag) (ligand)
chain: AVITGACERDVQCGAGTCCAISLWLRGLRMCTPLGREGEECHPGSHKVPFFRKRKHHTCPCLPNLLCSRFPDGRYRCSMDLKNINF
In the case of B1, the “EC50 of the early contractile response of isolated rat ileum” value is 87.8 nM and the “EC50 of the late contractile response of isolated rat ileum” value was found to be 72.4 nM.
